Like-named read-outs stand apart in the source and are kept apart here.
Target: T1, S-100b (Homo sapiens, UniProt P04271)
T1 sequence (P04271 2-92 limits assumed): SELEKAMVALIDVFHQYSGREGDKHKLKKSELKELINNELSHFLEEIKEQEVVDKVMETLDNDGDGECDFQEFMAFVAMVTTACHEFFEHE
Assay: Saturation binding of sRAGE to immobilized S-100b (ELISA, Scatchard analysis)
Description: Generally, the protocol for detection of RAGE modulators is as follows. RAGE ligand (e.g. S-100b, β-amyloid, CML) is diluted to 5 μg/ml in buffer A (fixing buffer) (100 mM Na2CO3/NaHCO3, pH 9.8) and 100 μl added to microtiter plate wells and allowed to incubate overnight at 4° C. to allow the ligand to become fixed to the surface of the wells. Wells are then washed 3 times with 400 μl/well buffer C (wash buffer) (20 mM Imidazole, 150 mM NaCl, pH 7.2), with a 5 second soak in buffer C between each wash. Buffer B (blocking buffer) (50 mM Imidazole pH 7.2, 5% BSA, 5 mM CaCl2, 5 mM MgCl2) is then added to the wells and allowed to incubate for 2 hours at 37° C. to block nonspecific protein binding sites. The blocking buffer is then aspirated from the wells, and the plate washed 3 times (400 μl/well) with buffer C, with a 5 second soak in buffer C between each wash. The compound of interest, 25 μl dissolved in 2% DMSO FAC (Final Assay Concentration ) and sRAGE (75 μl) (2.2×10^−4 mg/ml FAC) are then added to each well, and incubated 1 hour at 37° C. Meanwhile, polyclonal antibody or monoclonal antibody for sRAGE (e.g. 3.0×10^−3 mg/ml and 1.9×10^−4 mg/ml FAC, respectively), biotinylated goat F (ab′)2 anti-mouse IgG (e.g. 8.0×10^−4mg/ml FAC) (Biosource International, Camarillo, Calif. (TAGO)), and alkaline phosphatase labeled streptavidin (3.0×10^−3 mg/ml FAC) (ZYMED, San Francisco, Calif.) are added to 5 ml of buffer D (complex buffer) (50 mM Imidazole, pH 7.2; 0.2% BSA, 5 mM CaCl2, 5 mM MgCl2) in a 15 ml conical tube and allowed to incubate 30 minutes at room temperature.
The solution containing sRAGE and the compound of interest is then aspirated from each well, and after 3 washes with wash buffer, with a 5 second soak between each wash, the anti-sRAGE:IgG:streptavidin-alkaline phosphatase complex is added to each well (100 μl complex per well). After 1 hour at room temperature, the solution in each well is aspirated, and the wells washed 3 times, with 5 second soaks between each wash.
The alkaline phosphatase substrate, para-nitrophenyl phosphate (pNPP) (1 mg/ml in 1 M diethanolamine, pH 9.8), is added and the color allowed to develop for 1 hr in the dark. After the addition of 10 μl stop solution per well (0.5 N NaOH; 50% methanol), the OD405 is measured.
In the experiment shown in FIG. 10, wells were coated by incubation with 500 ng/well S-100b overnight, and after washing, sRAGE diluted in buffer D added to the final concentrations shown. […]
The utility of the assay for detecting compounds which antagonize both low and high affinity RAGE binding domains is shown in FIGS. 8-11. […] The amount of sRAGE bound to the immobilized ligand was detected using anti-sRAGE polyclonal or monoclonal antibody (3.0×10^−3 mg/ml and 1.9×10^−4 mg/ml FAC, respectively) and the development system as described in Example 1. Plots were linearized by means of Scatchard analysis and values for Kd and Bmax determined. Statistical analysis of experimental precision was determined by utilizing GraghPad Prisam version 3 software (GraphPad Software, Inc. San Diego, Calif.).
Both low and high affinity binding of sRAGE to S-100b are detected using the assay method of the invention. […] After washing, sRAGE comprising a final concentration ranging from about 0.3 to 10 nM was added to each well, and after 1 hour at 37° C., bound sRAGE was measured by the addition of polyclonal antibody complex. […]

sRAGE: soluble, extracellular portion of RAGE, as defined by the amino acid sequence SEQ ID NO: 2
Kd (S-100b 50 ng/well, sRAGE about 0.3 to 10 nM, FIG. 8, read-out: Kd, high affinity binding component): ~6 nM | Kd (S-100b 100 ng/well, sRAGE about 0.3 to 10 nM, FIG. 9, read-out: Kd, high affinity binding component): ~2 nM | Kd (S-100b 500 ng/well, four separate determinations, FIG. 10, read-out: Kd value): 60 nM | Kd (S-100b 500 and 100 ng/well, sRAGE 24 to 480 nM and 5 to 80 nM, FIGS. 10 and 11, read-out: Kd, low affinity binding site): ~60 nM | Kd (sRAGE 0.3 to 10 nM, FIGS. 8 and 9, read-out: Kd, high affinity binding site): 2 to 6 nM
